Data: publication PMC9605988, “Juxtaposition of Bub1 and Cdc20 on phosphorylated Mad1 during catalytic mitotic checkpoint complex assembly” (Nature Communications, 2022)
Changes are numbered by the printed parent chain. Names may count otherwise. Where two headings read alike, the source gives them in different places. Square brackets hold non-standard residues; d marks the D form. Peptide text beside a SMILES is read from it. * marks the point of attachment. X1 = N=c1ccc2c(-c3ccc(C(=O)NCCCCCN4C(=O)CC(*)C4=O)cc3C(=O)O)c3ccc(N)c(S(=O)(=O)O)c3oc-2c1S(=O)(=O)O; pT = C[C@@H](OP(=O)(O)O)[C@H](N)C(=O)O; pS = N[C@@H](COP(=O)(O)O)C(=O)O

Columns and labels:
pMad1CTD:Cdc20N complex = target: T1, pMad1CTD:Cdc20N complex (Homo sapiens, UniProt Q12834+Q9Y6D9); experiment: Fluorescence anisotropy: AF488-Bub1CD1 binding to preformed pMad1CTD:Cdc20N complex; settings: KD 1.7 vs 0.9 µM for pMad1CTD alone
T1 construct: the C-terminal domain of Mad1 (residue 597–718); made in house; host or cells: Cdc20N: E. coli Rosetta 2 (DE3)
Protocol: (§1) All reactions were completed in a buffer of 25 mM HEPES pH 7.75, 1 mM TCEP, 100 mM NaCl, 0.05% (v/v) Tween-20. […] Measurements were performed with a PheraStar plate reader FSX plate reader (BMG Labtech) using an optic module for λex = 485 nm, λem = 520 nm. Reactions were carried out in a total volume of 40 μl at 25 °C in a black, flat-bottom, non-binding surface 384-well plate (Corning). All experiments were performed as technical triplicates and data were analysed in PRISM 9.3.1 (GraphPad Software).

Mad1 CTD (Homo sapiens) = Mad1 CTD (Homo sapiens) (UniProt Q9Y6D9); settings: cited from earlier work
[1] = target: Mad1^CTD phosphorylated at Thr716 (pMad1^CTD) (UniProt Q9Y6D9); experiment: AUC; sedimentation equilibrium; 20 mM HEPES pH 7.5, 100 mM NaCl, 1 mM TCEP; 20 °C; 10,200, 12,200 and 21,000 rpm; up to four-fold molar excess of Cdc20^N
[2] = target: Mad1^CTD phosphorylated at Thr716 (pMad1^CTD) (UniProt Q9Y6D9); experiment: SEC-MALS; Superdex 75 or Superdex 200 Increase 10/300 GL, 0.5 ml/min; about 100 μl at ~3.0 mg/ml; Mad1^CTD dimer to Cdc20^N 1:1.2; proteins also run alone
[3] = target: T2, preformed AF488-Bub1^CD1:Mad1^CTD complex (Mad1^CTD unphosphorylated) (UniProt Q9Y6D9 597-718, Aurora Fluor 488 (AF488) on the N-terminal Cys; phosphoserine (pSer459); phosphothreonine (pThr461)); experiment: fluorescence polarisation; fluorescence anisotropy; Cdc20^N twofold series (100 μM to 6 nM, mixed 1:1) titrated into preformed AF488-Bub1^CD1:Mad1^CTD (20 nM: 2.1 µM); 25 mM HEPES pH 7.75, 1 mM TCEP, 100 mM NaCl, 0.05% Tween-20; 25 °C; settings: both partners purified
T2 construct: Mad1 C-terminal domain (Mad1^CTD), residues 597-718; as m1; added N-terminal Cys (carries AF488) and Trp; as m7; Bub1 conserved domain 1 (CD1) peptide; also called Mad1^CTD:AF488-Bub1^CD1 complex; source: mixed from purified Mad1^CTD and synthetic peptide (20 nM: 2.1 µM); copies: 2 + 1
T2 sequence 1: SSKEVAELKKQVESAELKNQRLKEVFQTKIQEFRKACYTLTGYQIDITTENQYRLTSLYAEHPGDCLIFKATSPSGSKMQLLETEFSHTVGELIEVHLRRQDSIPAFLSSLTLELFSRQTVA
T2 sequence 2: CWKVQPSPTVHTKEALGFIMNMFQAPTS

[4] = target: T3, preformed AF488-Bub1^CD1:pMad1^CTD complex (Mad1^CTD phosphorylated at Thr716) (UniProt Q9Y6D9 597-718, phosphothreonine at 716 (pThr716) | Aurora Fluor 488 (AF488) on the N-terminal Cys; phosphoserine (pSer459); phosphothreonine (pThr461)); experiment: as above; settings: both partners purified
T3 construct: Mad1 C-terminal domain (Mad1^CTD), residues 597-718; as m2; added N-terminal Cys (carries AF488) and Trp; as m7; Bub1 conserved domain 1 (CD1) peptide; source: mixed from purified pMad1^CTD and synthetic peptide (20 nM: 2.1 µM); copies: 2 + 1
T3 sequence 1: T2 sequence 1
T3 sequence 2: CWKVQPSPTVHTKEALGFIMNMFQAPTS

[5] = tested on: AF488-Bub1CD1:pMad1CTD complex; experiment: Fluorescence anisotropy: Cdc20N titrated into preformed AF488-Bub1CD1:pMad1CTD complex; assay type: binding, human; settings: at the concentrations used in the assay
pMad1CTD (Mad1CTD pT716) = experiment: SEC-MALS, Cdc20N with pMad1CTD; assay type: binding, human; settings: 1:1.2 ratio Mad1CTD dimer to Cdc20N
Protocol: (§2) Size-exclusion chromatography coupled with multi-angle static light scattering (SEC-MALS), was performed using an Agilent 1200 series LC system with an online Dawn Helios ii system (Wyatt) equipped with a QELS + module (Wyatt) and an Optilab rEX differential refractive index detector (Wyatt). About 100 μl purified protein at ~3.0 mg/ml was auto-injected onto Superdex 75 or a Superdex 200 Increase 10/300 GL column (GE Healthcare) and run at 0.5 ml/min. The molecular masses were analysed with ASTRA 7.3.0.11 (Wyatt). Data were plotted using Prism 8.4.3 (GraphPad Software, Inc). Purified Cdc20^N and Cdc20^N mutants were incubated with Mad1^CTD wild-type or mutants at a 1:1.2 ratio of Mad1^CTD dimer to Cdc20^N.

[6] = tested on: Mad1CTD R617E/K619D mutant; experiment: SEC-MALS, Cdc20N with Mad1CTD R617E/K619D; assay type: binding, human; settings: 1:1.2 ratio Mad1CTD dimer to Cdc20N
Protocol: as §2

[7] = target: the molecule itself; experiment: SEC-MALS; Superdex 75 or Superdex 200 Increase 10/300 GL, 0.5 ml/min; about 100 μl at ~3.0 mg/ml; Mad1^CTD dimer to Cdc20^N 1:1.2; proteins also run alone
Bub1CD1 [8] = settings: cited from earlier work
Text: (§3) In this predicted model, the Cdc20^N α1 helix lies diagonally across the Mad1^CTD coiled-coil with its N-terminus close to the Mad1 RLK motif of one monomer, and the C-terminus contacting the head domain β-sheet of the adjacent monomer, in a manner that strikingly mimics the Bub1^CD1:Mad1^CTD interaction (Fig. 4d). Similar to Bub1^CD1, the interaction of Cdc20 α1 with Mad1^CTD would largely be driven by hydrophobic interactions (Fig. 4e). This model predicts that Gln3 and Glu7, and Asp9 of Cdc20 α1 interact with Arg617 and Lys619, respectively of the Mad1^CTD RLK motif (Fig. 4d). This is consi ...

[9] = tested on: spindle assembly checkpoint; settings: cited from earlier work
Text: as §3

Bub1CD1 [10] = experiment: Binding of Mad1CTD mutants to Bub1CD1; settings: fluorescence anisotropy therefore not usable for this mutant
Protocol: as §1

[11] = target: T4, Mad2 R133A prepared in the open state for NMR (O-Mad2) (UniProt Q13257 1-205, R133A); experiment: NMR time course (1H,15N HSQC); 100 μM 15N O-Mad2 R133A with 200 μM Cdc20^MIM peptide; 25 °C; Trp75 and Trp167 indole resonances as reporters; settings: both partners purified
T4 construct: Mad2; also called O-Mad2 with an R133A mutation; source: 15N-labelled in M9 minimal media
T4 sequence (Q13257 whole entry R133A): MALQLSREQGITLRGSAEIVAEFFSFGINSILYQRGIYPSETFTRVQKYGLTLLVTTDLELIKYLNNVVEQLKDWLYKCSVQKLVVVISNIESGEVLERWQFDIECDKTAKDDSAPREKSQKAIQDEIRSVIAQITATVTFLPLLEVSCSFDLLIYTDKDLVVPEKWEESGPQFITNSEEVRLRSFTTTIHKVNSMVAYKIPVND

CC[C@H](C)[C@H](NC(=O)[C@H](Cc1ccccc1)NC(=O)CNC(=O)[C@H](CC(C)C)NC(=O)[C@H](C)NC(=O)[C@H](CCC(=O)O)NC(=O)[C@H](CCCCN)NC(=O)[C@@H](NC(=O)[C@H](Cc1c[nH]cn1)NC(=O)[C@@H](NC(=O)[C@@H](NC(=O)[C@@H]1CCCN1C(=O)[C@H](COP(=O)(O)O)NC(=O)[C@@H]1CCCN1C(=O)[C@H](CCC(N)=O)NC(=O)[C@@H](NC(=O)[C@H](CCCCN)NC(=O)[C@H](Cc1c[nH]c2ccccc12)NC(=O)[C@@H](N)CSC1CC(=O)N(CCCCCNC(=O)c2ccc(-c3c4ccc(=N)c(S(=O)(=O)O)c-4oc4c(S(=O)(=O)O)c(N)ccc34)c(C(=O)O)c2)C1=O)C(C)C)[C@@H](C)OP(=O)(O)O)C(C)C)[C@@H](C)O)C(=O)N[C@@H](CCSC)C(=O)N[C@@H](CC(N)=O)C(=O)N[C@@H](CCSC)C(=O)N[C@@H](Cc1ccccc1)C(=O)N[C@@H](CCC(N)=O)C(=O)N[C@@H](C)C(=O)N1CCC[C@H]1C(=O)N[C@H](C(=O)N[C@@H](CO)C(=O)O)[C@@H](C)O (stereo partly drawn) [AF488-Bub1^CD1] (H-C(X1)WKVQP[pS]P[pT]VHTKEALGFIMNMFQAPTS-OH; N-terminus and C-terminus assumed)
cooperativity of Bub1CD1 and Cdc20N binding to pMad1CTD (pMad1CTD:Cdc20N complex): unlikely to be cooperative
cooperativity of Bub1CD1 and Cdc20N binding to pMad1CTD (pMad1CTD:Cdc20N complex; listed as AF488-Bub1CD1): no cooperativity

Bub1 CD1 (from UniProt O43683)
Kd (Mad1 CTD (Homo sapiens)): 2.7 µM

B1: Cdc20^N (N-terminal truncation of Cdc20, residues 1-73) (domain or fragment, human, UniProt Q12834 1-73, looked up)
chain: MAQFAFESDLHSLLQLDAPIPNAPPARWQRKAKEAAGPAPSPMRAANRSHSAGRTPGRTPGKSSSKVQTTPSK
notes: human Cdc20, residues 1-73; also called Cdc20^1–73; wild-type Cdc20^N; source: E. coli Rosetta 2 (DE3), purified (TALON, TEV cleavage, HisTrap, Resource S, Superdex 75); not shown: His6, N-terminal, cleaved; MBP, N-terminal, cleaved
stoichiometry N (Cdc20^N per pMad1^CTD homodimer) [1]: 1
stoichiometry N (Cdc20^N per pMad1^CTD dimer) [2]: 1
Kd [3]: 28.1 µM
Kd [4]: 4.8 µM

B2: Cdc20^N E7R/D9K: Cdc20N E7R/D9K mutant (protein)
chain: B1 chain with E7R, D9K
modifications: left off: His6, N-terminal, state not stated | MBP, N-terminal, state not stated
notes: Cdc20N E7R/D9K mutant
interaction with pMad1CTD by fluorescence anisotropy [5]: could no longer be observed
binding by SEC-MALS (pMad1CTD (Mad1CTD pT716)): could no longer be observed
binding by SEC-MALS [6]: did not show an interaction

B3: Mad1^CTD phosphorylated at Thr716 (pMad1^CTD) (domain or fragment, UniProt Q9Y6D9 597-718, looked up)
chain: T2 sequence 1
modifications: phosphothreonine at 716 (pThr716)
notes: Mad1 C-terminal domain (Mad1^CTD), residues 597-718; Homodimer; A few peptides phosphorylated at Thr644 were also found; one phosphate per monomer by intact mass; also called Mad1^CTD pT716; Mad1^CTD pThr716
stoichiometry N [7]: 2

B4: Mad1^CTD K619A: Mad1CTD K619A mutant, refs 21, 24 (protein, UniProt Q9Y6D9 597-718, looked up, variant K619A)
chain: T2 sequence 1 with K23A
Bub1CD1 binding of Mad1CTD mutant (Bub1CD1 [8]): did not disrupt Bub1^CD1 binding significantly
checkpoint function [9]: disrupted the checkpoint

B5: Mad1^CTD R617E/K619D: Mad1CTD double mutant of the RLK motif (protein)
chain: T2 sequence 1 with R21E, K23D
Bub1CD1 binding of Mad1CTD mutant (Bub1CD1 [10]): disrupted the binding of Bub1^CD1

B6: Cdc20^MIM peptide (peptide)
peptide: NLNGFDVEEAKILRLSGKPQNAPEGYQNRLKVLY
notes: source: synthetic peptide (Designer Bioscience, UK)
binding result [11]: binds
